Laboratory results published in article PMC11812572, “NuMA is a mitotic adaptor protein that activates dynein and connects it to microtubule minus ends” (The Journal of Cell Biology, 2025).

B1: mScarlet-tagged human NuMA C-terminal fragment aa 1560-2115, mScarlet-NuMA^(C-term L) (domain or fragment, UniProt Q14980-1 1560-2115, looked up)
chain: TSDQASKVQQQKLKAVQAQGGESQQEAQRLQAQLNELQAQLSQKEQAAEHYKLQMEKAKTHYDAKKQQNQELQEQLRSLEQLQKENKELRAEAERLGHELQQAGLKTKEAEQTCRHLTAQVRSLEAQVAHADQQLRDLGKFQVATDALKSREPQAKPQLDLSIDSLDLSCEEGTPLSITSKLPRTQPDGTSVPGEPASPISQRLPPKVESLESLYFTPIPARSQAPLESSLDSLGDVFLDSGRKTRSARRRTTQIINITMAKKLDVEEPDSANSSFYSTRSAPASQASLRATSSTQSLARLGSPDYGNSALLSLPGYRPTTRSSARRSQAGVSSGAPPGRNSFYMGTCQDEPEQLDDWNRIAELQQRNRVCPPHLKTCYPLESRPSLSLGTITDEEMKTGDPQETLRRASMQPIQIAEGTGITTRQQRKRVSLEPHQGPGTPESKKATSCFPRPMTPRDRHEGRKQSTTEAQKKAAPASTKQADRRQSMAFSILNTPKKLGNSLLRRGASKKALSKASPNTRSGTRRSPRIATTTASAATAAAIGATPRAKGKAKHLE
notes: NuMA, human, isoform 1 (NM_006185), aa 1560-2115: part of the predicted coiled-coil and the entire C-terminal tail; Mixed population of monomers and dimers by mass photometry; source: Sf21 insect cells (baculovirus), purified (StrepTrap, TEV cleavage, SEC); not shown: Strep-tag II, N-terminal, cleaved; mScarlet, N-terminal, kept
B2: AF546- or AF647-labelled SNAP-tagged human NuMA N-terminal fragment (first 705 aa), NuMA^N-term (domain or fragment, UniProt Q14980-1 1-705, looked up)
chain: MTLHATRGAALLSWVNSLHVADPVEAVLQLQDCSIFIKIIDRIHGTEEGQQILKQPVSERLDFVCSFLQKNRKHPSSPECLVSAQKVLEGSELELAKMTMLLLYHSTMSSKSPRDWEQFEYKIQAELAVILKFVLDHEDGLNLNEDLENFLQKAPVPSTCSSTFPEELSPPSHQAKREIRFLELQKVASSSSGNNFLSGSPASPMGDILQTPQFQMRRLKKQLADERSNRDELELELAENRKLLTEKDAQIAMMQQRIDRLALLNEKQAASPLEPKELEELRDKNESLTMRLHETLKQCQDLKTEKSQMDRKINQLSEENGDLSFKLREFASHLQQLQDALNELTEEHSKATQEWLEKQAQLEKELSAALQDKKCLEEKNEILQGKLSQLEEHLSQLQDNPPQEKGEVLGDVLQLETLKQEAATLAANNTQLQARVEMLETERGQQEAKLLAERGHFEEEKQQLSSLITDLQSSISNLSQAKEELEQASQAHGARLTAQVASLTSELTTLNATIQQQDQELAGLKQQAKEKQAQLAQTLQQQEQASQGLRHQVEQLSSSLKQKEQQLKEVAEKQEATRQDHAQQLATAAEEREASLRERDAALKQLEALEKEKAAKLEILQQQLQVANEARDSAQTSVTQAQREKAELSRKVEELQACVETARQEQHEAQAQVAELELQLRSEQQKATEKERVAQEKDQLQEQLQ
modifications: SNAP-tag labelled with SNAP-Surface Alexa Fluor 546 or SNAP-Surface Alexa Fluor 647
notes: nuclear mitotic apparatus protein (NuMA), human, isoform 1 (NM_006185), first 705 aa; two stop codons inserted after aa 705; codon-optimised for S. frugiperda; A PreScission site lies between the SNAP-tag and NuMA; Dimeric by mass photometry; the construct described is SNAP-tagged; also called AF546-NuMA^N-term; AF647-NuMA^N-term; source: Sf21 insect cells (baculovirus), purified (StrepTrap, TEV …)

Biological target: the molecule itself
Assay: mass photometry; TwoMP mass photometer; 5-20 nM protein in the respective TIRF microscopy assay buffer without methylcellulose; monomer to dimer

| Protein | stoichiometry N |
| --- | --- |
| B1 | 2 |
| B2 | 2 |
